Molecular target: T1, human RhoD (residues 8-194) with the Q75L mutation, bound to GMP-PNP (human, UniProt O00212 8-194, Q75L)
T1 construct: Loaded with the GTP analogue GMP-PNP and Mg2+ before crystallisation; His6 tag removed with human rhinovirus 3C protease; also called GMP-PNP-loaded RhoD; source: E. coli BL21 (DE3), purified (HisTrap, Resource Q, Superdex 75); not shown: His6, N-terminal, cleaved
T1 sequence (looked up): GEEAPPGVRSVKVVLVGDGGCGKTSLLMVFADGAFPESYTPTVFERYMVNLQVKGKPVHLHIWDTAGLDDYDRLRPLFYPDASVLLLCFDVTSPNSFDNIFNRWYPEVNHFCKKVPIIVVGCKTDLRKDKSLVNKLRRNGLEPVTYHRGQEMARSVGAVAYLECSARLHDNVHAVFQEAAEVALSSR
Test: crystal structure; Plexin B2 (1274-1842) and GMP-PNP-loaded RhoD mixed at 1:1 molar ratio, 6 mg/mL total; crystals grown over a month at 20 °C in 0.2 M MgCl2, 22 % PEG3350, 100 mM MIB pH 6.8; plexin B2 degraded to the RBD in the drops; 3.1 Å, molecular replacement
Conditions: both partners purified

- binding result: binds
B1: mouse plexin B2 Rho GTPase binding domain (RBD) (domain or fragment, UniProt B2RXS4 1463-1565, looked up)
chain: EYAPLTVSVIVQDEGIDAIPVKVLNCDTISQVKEKIIDQVYRTQPCSCWPKPDSVVLEWRPGSTAQILSDLDLTSQREGRWKRINTLMHYNVRDGATLILSKV
notes: Plexin B2, mouse; Expressed as the intracellular region without the juxtamembrane region (residues 1274-1842); it degraded in the crystallization drops and the crystal held only the RBD, of which residues 1463-1509 and 1510-1565 are described in the model; In the crystal two RBD chains form a domain-swapped dimer (swap between residues 1509 and 1510), which the authors regard as a crystallization …
